Laboratory results published in PMC5518211.

Assays:
[1] = target: Calmodulin labeled with Cyanine5 (not stated (human brain CaM or recombinant bovine CaM bought)); assay: MST
[2] = target: Calmodulin (not stated (human brain CaM or recombinant bovine CaM bought)) (UniProt P0DP23); assay: SPR

Sequence of Full-length recombinant human neurogranin with a His-tag at the N-terminus (Q92686 whole entry): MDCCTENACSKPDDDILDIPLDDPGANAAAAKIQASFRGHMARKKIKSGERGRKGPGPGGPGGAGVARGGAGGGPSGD

Kd [1]	Kd [2]	Substance
890 nM		Full-length recombinant human neurogranin with a His-tag at the N-terminus (from UniProt Q92686) (natural protein)
	14000 nM	IQ-motif containing peptide of neurogranin (Ng 27-50) (from UniProt Q92686 27-50)
190 nM		Peptide corresponding to the CaM-binding region of CaMKIIα (CaMKII 290-309) (from UniProt Q9UQM7 290-309)
